{"source": "patent US7351690B2", "about": "“Knockout identification of target-specific sites in peptides” (priority 2000, dated 2008)", "key": {"hMC5-R": {"target": "T1, hMC5-R (Homo sapiens, UniProt P33032)", "T1 construct": "expressed in transfected cells", "T1 sequence (P33032 whole entry)": "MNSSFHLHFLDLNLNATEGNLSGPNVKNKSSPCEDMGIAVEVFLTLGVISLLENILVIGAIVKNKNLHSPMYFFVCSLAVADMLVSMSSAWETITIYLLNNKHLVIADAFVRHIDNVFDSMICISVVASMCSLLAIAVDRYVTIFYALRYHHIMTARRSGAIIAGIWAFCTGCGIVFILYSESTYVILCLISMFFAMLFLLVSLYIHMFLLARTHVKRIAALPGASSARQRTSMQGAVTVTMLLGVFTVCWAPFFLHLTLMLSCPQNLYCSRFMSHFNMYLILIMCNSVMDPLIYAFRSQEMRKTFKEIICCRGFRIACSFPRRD", "assay": "competitive inhibition binding assay, 125I-NDP-alpha-MSH, hMC5-R membranes", "conditions": "1 μM test peptide; 0.4 nM 125I-NDP-alpha-MSH; hMC5-R membranes", "outline": "(§1)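 Membranes from hMC3-R, hMC4-R, hMC5-R or B-16 cells (MC1-R) incubated 90 min at room temperature with 0.4 nM 125I-NDP-alpha-MSH and rhenium-complexed test peptide, typically 1 μM, in HEPES pH 7.2 with Mg/Ca/K. Filter-bound radioactivity counted; % inhibition of specific binding (1 μM alpha-MSH defines nonspecific), triplicate means.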"}, "hMC3-R": {"target": "T2, hMC3-R (Homo sapiens, UniProt P41968)", "T2 construct": "expressed in transfected cells", "T2 sequence (P41968 whole entry)": "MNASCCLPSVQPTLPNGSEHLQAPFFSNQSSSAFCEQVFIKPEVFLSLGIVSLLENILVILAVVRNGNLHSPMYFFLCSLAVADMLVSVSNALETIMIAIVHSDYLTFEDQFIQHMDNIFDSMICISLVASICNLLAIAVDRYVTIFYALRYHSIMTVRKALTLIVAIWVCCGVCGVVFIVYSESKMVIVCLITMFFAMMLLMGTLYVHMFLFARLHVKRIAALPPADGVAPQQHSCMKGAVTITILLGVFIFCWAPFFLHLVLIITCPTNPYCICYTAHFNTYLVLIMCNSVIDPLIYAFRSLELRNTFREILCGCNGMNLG", "assay": "competitive inhibition binding assay, 125I-NDP-alpha-MSH, hMC3-R membranes", "conditions": "1 μM test peptide; 0.4 nM 125I-NDP-alpha-MSH; hMC3-R membranes", "outline": "as §1"}, "hMC4-R": {"target": "T3, hMC4-R (Homo sapiens, UniProt P32245)", "T3 construct": "expressed in transfected cells", "T3 sequence (P32245 whole entry)": "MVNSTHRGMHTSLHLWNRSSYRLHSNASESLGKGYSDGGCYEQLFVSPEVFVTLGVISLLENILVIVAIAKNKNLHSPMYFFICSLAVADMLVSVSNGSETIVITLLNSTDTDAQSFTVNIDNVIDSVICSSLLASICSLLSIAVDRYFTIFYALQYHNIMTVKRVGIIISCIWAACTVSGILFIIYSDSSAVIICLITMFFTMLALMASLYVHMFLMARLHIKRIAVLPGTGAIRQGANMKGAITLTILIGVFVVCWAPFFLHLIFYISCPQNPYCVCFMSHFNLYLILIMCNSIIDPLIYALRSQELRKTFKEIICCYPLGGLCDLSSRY", "assay": "competitive inhibition binding assay, 125I-NDP-alpha-MSH, hMC4-R membranes", "conditions": "1 μM test peptide; 0.4 nM 125I-NDP-alpha-MSH; hMC4-R membranes", "outline": "as §1"}, "MC1-R": {"target": "T4, MC1-R (Mus musculus, UniProt Q01727)", "T4 construct": "membranes prepared from hMC3-R, hMC4-R, hMC5-R, and B-16 mouse melanoma cells (containing MC1-R); endogenous in cells; host or cells: B-16 mouse melanoma cells (membranes)", "T4 sequence (Q01727 whole entry)": "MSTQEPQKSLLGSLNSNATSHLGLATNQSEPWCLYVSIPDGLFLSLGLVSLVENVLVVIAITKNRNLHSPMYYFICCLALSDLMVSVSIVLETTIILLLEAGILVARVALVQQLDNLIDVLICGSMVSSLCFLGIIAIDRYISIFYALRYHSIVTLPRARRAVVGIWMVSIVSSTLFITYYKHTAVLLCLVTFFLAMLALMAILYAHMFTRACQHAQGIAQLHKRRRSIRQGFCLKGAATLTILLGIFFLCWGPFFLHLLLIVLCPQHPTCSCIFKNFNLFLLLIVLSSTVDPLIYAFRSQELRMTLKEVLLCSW", "assay": "competitive inhibition binding assay, 125I-NDP-alpha-MSH, B-16 mouse melanoma cell membranes", "conditions": "1 μM test peptide; 0.4 nM 125I-NDP-alpha-MSH; B-16 mouse melanoma cell membranes", "outline": "as §1"}}, "note": "Square brackets hold non-standard residues; d marks the D form. Ends that are not written are not given here. Nle = CCCC[C@H](N)C(=O)O", "data": [{"substance": "Tyr-Val-Nle-Gly-His-Cys-Phe-Arg-Trp-Asp-Arg-Phe-NH2 (YV[Nle]GHCFRWDRF-NH2; numbers in words are those of the source; also: oxorhenium(V) N3S1 chelate (Re=O) with Cys) [4-7]", "values": [{"measurement": "% Inhibition at 1 μM at Melanocortin Receptor 5", "setting": "hMC5-R", "result": 15, "unit": "%"}, {"measurement": "% Inhibition at 1 μM at Melanocortin Receptor 3", "setting": "hMC3-R", "result": 17, "unit": "%"}, {"measurement": "% Inhibition at 1 μM at Melanocortin Receptor 4", "setting": "hMC4-R", "result": 4, "unit": "%"}, {"measurement": "% Inhibition at 1 μM at Melanocortin Receptor 1", "setting": "MC1-R", "result": "−4", "unit": "%"}]}, {"substance": "Tyr-Val-Nle-Gly-His-D-Phe-Arg-Cys-Asp-Arg-Phe-NH2 (YV[Nle]GH[dF]RCDRF-NH2; numbers in words are those of the source; also: oxorhenium(V) N3S1 chelate complex (Re=O)) [5-4]", "values": [{"measurement": "% Inhibition at 1 μM at Melanocortin Receptor 5", "setting": "hMC5-R", "result": 58, "unit": "%"}, {"measurement": "% Inhibition at 1 μM at Melanocortin Receptor 3", "setting": "hMC3-R", "result": 11, "unit": "%"}, {"measurement": "% Inhibition at 1 μM at Melanocortin Receptor 4", "setting": "hMC4-R", "result": 18, "unit": "%"}, {"measurement": "% Inhibition at 1 μM at Melanocortin Receptor 1", "setting": "MC1-R", "result": 86, "unit": "%"}]}, {"substance": "Tyr-Val-Nle-Gly-His-D-Phe-Arg-Cys-Trp-Asp-Arg-Phe-NH2 (YV[Nle]GH[dF]RCWDRF-NH2; also: Re complex) [3-5]", "values": [{"measurement": "% Inhibition at 1 μM at Melanocortin Receptor 5", "setting": "hMC5-R", "result": 81, "unit": "%"}, {"measurement": "% Inhibition at 1 μM at Melanocortin Receptor 3", "setting": "hMC3-R", "result": 45, "unit": "%"}, {"measurement": "% Inhibition at 1 μM at Melanocortin Receptor 4", "setting": "hMC4-R", "result": 33, "unit": "%"}, {"measurement": "% Inhibition at 1 μM at Melanocortin Receptor 1", "setting": "MC1-R", "result": 83, "unit": "%"}]}, {"substance": "Tyr-Val-Nle-Gly-His-D-Phe-Arg-Trp-Asp-Arg-Cys-NH2 (YV[Nle]GH[dF]RWDRC-NH2; numbers in words are those of the source; also: oxorhenium(V) N3S1 chelate complex (Re=O)) [5-1]", "values": [{"measurement": "% Inhibition at 1 μM at Melanocortin Receptor 5", "setting": "hMC5-R", "result": 98, "unit": "%"}, {"measurement": "% Inhibition at 1 μM at Melanocortin Receptor 3", "setting": "hMC3-R", "result": 92, "unit": "%"}, {"measurement": "% Inhibition at 1 μM at Melanocortin Receptor 4", "setting": "hMC4-R", "result": 95, "unit": "%"}, {"measurement": "% Inhibition at 1 μM at Melanocortin Receptor 1", "setting": "MC1-R", "result": 101, "unit": "%"}]}, {"substance": "Tyr-Val-Nle-Gly-His-D-Phe-Arg-Trp-Asp-Arg-Cys-Phe-NH2 (YV[Nle]GH[dF]RWDRCF-NH2; also: Re complex) [3-2]", "values": [{"measurement": "% Inhibition at 1 μM at Melanocortin Receptor 5", "setting": "hMC5-R", "result": 100, "unit": "%"}, {"measurement": "% Inhibition at 1 μM at Melanocortin Receptor 3", "setting": "hMC3-R", "result": 91, "unit": "%"}, {"measurement": "% Inhibition at 1 μM at Melanocortin Receptor 4", "setting": "hMC4-R", "result": 89, "unit": "%"}, {"measurement": "% Inhibition at 1 μM at Melanocortin Receptor 1", "setting": "MC1-R", "result": 99, "unit": "%"}]}, {"substance": "Tyr-Val-Nle-Gly-His-D-Phe-Arg-Trp-Asp-Arg-Phe-Cys-NH2 (FRWDRFC; Tyr-Val-Nle-Gly-His N-term; D-residue; amide; printed: Phe-Arg-Trp-Asp-Arg-Phe-Cys-) [3-1]", "values": [{"measurement": "% Inhibition at 1 μM at Melanocortin Receptor 5", "setting": "hMC5-R", "result": 102, "unit": "%"}, {"measurement": "% Inhibition at 1 μM at Melanocortin Receptor 3", "setting": "hMC3-R", "result": 96, "unit": "%"}, {"measurement": "% Inhibition at 1 μM at Melanocortin Receptor 4", "setting": "hMC4-R", "result": 98, "unit": "%"}, {"measurement": "% Inhibition at 1 μM at Melanocortin Receptor 1", "setting": "MC1-R", "result": 95, "unit": "%"}]}, {"substance": "Tyr-Val-Nle-Gly-His-D-Phe-Arg-Trp-Asp-Cys-Arg-Phe-NH2 (YV[Nle]GH[dF]RWDCRF-NH2; also: Re complex) [3-3]", "values": [{"measurement": "% Inhibition at 1 μM at Melanocortin Receptor 5", "setting": "hMC5-R", "result": 99, "unit": "%"}, {"measurement": "% Inhibition at 1 μM at Melanocortin Receptor 3", "setting": "hMC3-R", "result": 95, "unit": "%"}, {"measurement": "% Inhibition at 1 μM at Melanocortin Receptor 4", "setting": "hMC4-R", "result": 99, "unit": "%"}, {"measurement": "% Inhibition at 1 μM at Melanocortin Receptor 1", "setting": "MC1-R", "result": 99, "unit": "%"}]}, {"substance": "Tyr-Val-Nle-Gly-His-D-Phe-Arg-Trp-Asp-Cys-Phe-NH2 (YV[Nle]GH[dF]RWDCF-NH2; numbers in words are those of the source; also: oxorhenium(V) N3S1 chelate complex (Re=O)) [5-2]", "values": [{"measurement": "% Inhibition at 1 μM at Melanocortin Receptor 5", "setting": "hMC5-R", "result": 61, "unit": "%"}, {"measurement": "% Inhibition at 1 μM at Melanocortin Receptor 3", "setting": "hMC3-R", "result": 39, "unit": "%"}, {"measurement": "% Inhibition at 1 μM at Melanocortin Receptor 4", "setting": "hMC4-R", "result": 58, "unit": "%"}, {"measurement": "% Inhibition at 1 μM at Melanocortin Receptor 1", "setting": "MC1-R", "result": 95, "unit": "%"}]}, {"substance": "Tyr-Val-Nle-Gly-His-D-Phe-Arg-Trp-Cys-Arg-Phe-NH2 (YV[Nle]GH[dF]RWCRF-NH2; numbers in words are those of the source; also: oxorhenium(V) N3S1 chelate complex (Re=O)) [5-3]", "values": [{"measurement": "% Inhibition at 1 μM at Melanocortin Receptor 5", "setting": "hMC5-R", "result": 100, "unit": "%"}, {"measurement": "% Inhibition at 1 μM at Melanocortin Receptor 3", "setting": "hMC3-R", "result": 93, "unit": "%"}, {"measurement": "% Inhibition at 1 μM at Melanocortin Receptor 4", "setting": "hMC4-R", "result": 97, "unit": "%"}, {"measurement": "% Inhibition at 1 μM at Melanocortin Receptor 1", "setting": "MC1-R", "result": 100, "unit": "%"}]}, {"substance": "Tyr-Val-Nle-Gly-His-D-Phe-Arg-Trp-Cys-Asp-Arg-Phe-NH2 (YV[Nle]GH[dF]RWCDRF-NH2; also: Re complex) [3-4]", "values": [{"measurement": "% Inhibition at 1 μM at Melanocortin Receptor 5", "setting": "hMC5-R", "result": 100, "unit": "%"}, {"measurement": "% Inhibition at 1 μM at Melanocortin Receptor 3", "setting": "hMC3-R", "result": 88, "unit": "%"}, {"measurement": "% Inhibition at 1 μM at Melanocortin Receptor 4", "setting": "hMC4-R", "result": 94, "unit": "%"}, {"measurement": "% Inhibition at 1 μM at Melanocortin Receptor 1", "setting": "MC1-R", "result": 98, "unit": "%"}]}]}
